Legend:
Test in all cases: AUC
[1] = molecular target: BirA D176A (Escherichia coli) (UniProt P06709)
[2] = molecular target: BirA G142A (Escherichia coli) (UniProt P06709)
[3] = molecular target: BirA I280A (Escherichia coli) (UniProt P06709)
[4] = molecular target: BirA K172A (Escherichia coli) (UniProt P06709)

For “BirA D176A (from UniProt P06709 1-321) (enzyme)”, the Kd [1] was > 6 mM.
“BirA G142A (from UniProt P06709 1-321) (enzyme)” was tested, and the Kd [2] was > 17 mM.
In the case of “BirA I280A (from UniProt P06709 1-321) (enzyme)”, the Kd [3] is reported as > 4 mM.
“BirA K172A (from UniProt P06709 1-321) (enzyme)” was tested, and the Kd [4] was > 0.7 mM.
